According to patent US20260250338A1 (Molecular Partners, published 2026):

Experiments:
[1] = target: T1, CD16aV allotype of human CD16a expressed on Jurkat-Lucia-NFAT-CD16 Reporter cells (InvivoGen) (human, UniProt P08637 17-254); assay: cell-based or functional assay
[2] = target: T1, CD16aV allotype of human CD16a …; assay: cell-based or functional assay; remark: listed apart in the source
[3] = target: T2, CD32a expressed on Jurkat-NFAT-CD32a reporter cells (Invivogen jktl-nfat-cd32) (UniProt P12318 34-317, limits assumed); assay: flow cytometry on Jurkat-NFAT-CD32a cells, 4-fold serial dilutions, detection with anti-DARPin 1.1.1 antibody
T2 construct: whole, on cells; also called Jurkat-Lucia NFAT-CD32a Reporter cells; Fc receptor CD32a
T2 sequence (looked up): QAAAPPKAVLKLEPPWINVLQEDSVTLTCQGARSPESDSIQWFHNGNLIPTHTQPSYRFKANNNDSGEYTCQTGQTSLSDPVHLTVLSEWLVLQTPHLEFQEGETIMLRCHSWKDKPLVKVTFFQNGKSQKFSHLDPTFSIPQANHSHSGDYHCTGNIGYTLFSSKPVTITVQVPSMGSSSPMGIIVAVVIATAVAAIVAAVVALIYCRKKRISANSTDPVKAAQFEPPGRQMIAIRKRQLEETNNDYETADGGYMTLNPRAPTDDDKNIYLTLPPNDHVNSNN
Description: Serial dilutions (4-fold) of the constructs were incubated 30 min at 4° C. with 50000 cells in a 96-well plate. Detection antibody (anti-DARPin 1.1.1 Alexa Fluor […]) was subsequently added to the wells (2 μg/ml diluted in FACS buffer) and incubated at 4° C. for 30 min. Cold buffer was added, then cells were spun down prior to supernatant removal. Cells were then fixed with Cell fix buffer (BD) and signal was measured by flow cytometry.

[4] = target: T3, full length human CD16b stably expressed on transduced WT Jurkat cells (human, UniProt O75015 17-200); assay: flow cytometry on Jurkat-CD16b cells, serial dilutions, detection with Penta-His Alexa Fluor 647
T3 construct: whole, on cells; also called CD16b expressing cells; Jurkat CD16b
T3 sequence (O75015 17-200): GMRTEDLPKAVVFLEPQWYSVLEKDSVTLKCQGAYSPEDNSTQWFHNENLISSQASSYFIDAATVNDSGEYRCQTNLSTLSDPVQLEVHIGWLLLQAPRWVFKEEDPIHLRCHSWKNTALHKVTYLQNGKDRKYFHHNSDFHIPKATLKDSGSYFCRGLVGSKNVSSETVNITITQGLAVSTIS

T1 sequence (P08637 17-254 F176V): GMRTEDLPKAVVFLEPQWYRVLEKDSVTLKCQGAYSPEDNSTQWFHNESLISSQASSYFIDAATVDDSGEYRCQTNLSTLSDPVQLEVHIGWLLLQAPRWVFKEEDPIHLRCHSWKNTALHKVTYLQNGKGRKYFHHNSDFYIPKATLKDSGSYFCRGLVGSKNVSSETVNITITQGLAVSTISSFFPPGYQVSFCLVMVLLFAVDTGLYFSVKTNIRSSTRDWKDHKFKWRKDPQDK

B1: Construct No. 20 (SEQ ID NO: 89), CD117 × CD16a, CD117 binder SEQ ID NO: 84 and DARPin #2 (designed binder)
chain: MRGSHHHHHHGSDLGQKLLKAAQYGQDDEVRILLAAGADVNAKDWAGKTPLHVAAEAGHLEIVEVLLKAGADVNAKDKAGETPLHLAAEQGHLEIVEVLLKAGADVNAQDEWGQTPADLAAYYGLEDIAEVLQKAAGSPTPTPTTPTPTPTTPTPTPTGSDLGQKLLRAAKKGQDDEVRELLKAGADVNAKDEQGWTPLHIAAWKGHLEIVEVLLKAGADVNAKDVFDWTPLHVAAHFGHLEIVEVLLKAGADVNAQDRAGETPADLAAQAGHEDIAEVLQKAA
- EC50 (pM), DDCC reporter assay (luminescence), Kasumi-1 target cells, E:T 1:1, 24 h [1]: 86.2 pM
- Top (RLU), DDCC reporter assay (luminescence), Kasumi-1 target cells [1]: 26500 RLU

B2: Construct No. 21 (SEQ ID NO: 90), CD117 × CD16a, CD117 binder SEQ ID NO: 85 and DARPin #2 (designed binder)
chain: MRGSHHHHHHGSDLGAKLLKAAQSGQDDEVRILLAAGADVNAKDKDGYTPLHLAAREGHLEIVEVLLKAGSDVNAKDYYGETPLHQAAEYGHLEIVEVLLKAGADVNAQDEWGATPADLAAQQGHEDIAEVLQKAAGSPTPTPTTPTPTPTTPTPTPTGSDLGQKLLRAAKKGQDDEVRELLKAGADVNAKDEQGWTPLHIAAWKGHLEIVEVLLKAGADVNAKDVFDWTPLHVAAHFGHLEIVEVLLKAGADVNAQDRAGETPADLAAQAGHEDIAEVLQKAA
- EC50 (pM), DDCC reporter assay (luminescence), Kasumi-1 target cells, E:T 1:1, 24 h [1]: 32.3 pM
- Top (RLU), DDCC reporter assay (luminescence), Kasumi-1 target cells [1]: 23200 RLU

B3: Construct No. 22 (SEQ ID NO: 91), CD117 × CD16a, CD117 binder SEQ ID NO: 86 and DARPin #2 (designed binder)
chain: MRGSHHHHHHGSDLGKKLLQAARAGQLDEVRELLKAGADVNAKDVYGLTPLHLAAREGHLEIVEVLLKAGADVNAKDAYGETPLHLAAEAGHLEIVEVLLKAGADVNAKDEWGETPLNVAARAGHQDIAEVLQKAAGSPTPTPTTPTPTPTTPTPTPTGSDLGQKLLRAAKKGQDDEVRELLKAGADVNAKDEQGWTPLHIAAWKGHLEIVEVLLKAGADVNAKDVFDWTPLHVAAHFGHLEIVEVLLKAGADVNAQDRAGETPADLAAQAGHEDIAEVLQKAA
- EC50 (pM), DDCC reporter assay (luminescence), Kasumi-1 target cells, E:T 1:1, 24 h [1]: 25.2 pM
- Top (RLU), DDCC reporter assay (luminescence), Kasumi-1 target cells [1]: 22000 RLU

B4: Construct No. 23 (SEQ ID NO: 92), CD117 × CD16a, CD117 binder SEQ ID NO: 87 and DARPin #2 (designed binder)
chain: MRGSHHHHHHGSDLGKKLLKAASWGQDDEVRILLAAGADVNAKDNSGWTPLHAAAWYGHLEIVEVLLKAGADVNAKDKTGLTPLHKAAHVGHLEIVEVLLKAGADVNAQDEWGATPADLAASTGHEDIAEVLQKAAGSPTPTPTTPTPTPTTPTPTPTGSDLGQKLLRAAKKGQDDEVRELLKAGADVNAKDEQGWTPLHIAAWKGHLEIVEVLLKAGADVNAKDVFDWTPLHVAAHFGHLEIVEVLLKAGADVNAQDRAGETPADLAAQAGHEDIAEVLQKAA
- EC50 (pM), DDCC reporter assay (luminescence), Kasumi-1 target cells, E:T 1:1, 24 h [1]: 120 pM
- Top (RLU), DDCC reporter assay (luminescence), Kasumi-1 target cells [1]: 7870 RLU

B5: Construct No. 24 (SEQ ID NO: 93), CD117 × CD16a, CD117 binder SEQ ID NO: 88 and DARPin #2 (designed binder)
chain: MRGSHHHHHHGSDLGHKLLHAAAWGQDDEVRILLAAGADVNAKDQSGWTPLHVAAWYGHLEIVEVLLKAGADVNAKDLKGETPLHLAALVGHLEIVEVLLKAGADVNAQDIAGDTPADLAAIAGHEDIAEVLQKAAGSPTPTPTTPTPTPTTPTPTPTGSDLGQKLLRAAKKGQDDEVRELLKAGADVNAKDEQGWTPLHIAAWKGHLEIVEVLLKAGADVNAKDVFDWTPLHVAAHFGHLEIVEVLLKAGADVNAQDRAGETPADLAAQAGHEDIAEVLQKAA
- EC50 (pM), DDCC reporter assay (luminescence), Kasumi-1 target cells, E:T 1:1, 24 h [1]: 96.1 pM
- Top (RLU), DDCC reporter assay (luminescence), Kasumi-1 target cells [1]: 8470 RLU

B6: Construct No. 5 (SEQ ID NO: 11), 2D (HER2 × CD16a), DARPin #2 with N-terminal HER2 binder of SEQ ID NO: 9 (designed binder)
chain: MRGSHHHHHHGSDLGIKLLFAAAKGQDDEVRELLKAGADVNAKDFQGVTPLHIAAQSGHLEIVEVLLKAGADVNAKDVTGDTPLHLAAQHGHLEIVEVLLKAGADVNAQDERGWTPADLAADWGHEDIAEVLQKAAGSPTPTPTTPTPTPTTPTPTPTGSDLGQKLLRAAKKGQDDEVRELLKAGADVNAKDEQGWTPLHIAAWKGHLEIVEVLLKAGADVNAKDVFDWTPLHVAAHFGHLEIVEVLLKAGADVNAQDRAGETPADLAAQAGHEDIAEVLQKAA
notes: Bispecific DARPin; also called Construct 5
- EC50 (pM), ADCC reporter assay (luminescence), SKOV3 target cells, E:T 5:1, 5 h [2]: 0.39 pM
- binding result [3]: no binding (tested: 400 nM)
- binding result [4]: no binding (tested: 1000 nM)

B7: Construct No. 6 (SEQ ID NO: 17), 2D (CD16a × HER2), DARPin #3 with C-terminal HER2 binder of SEQ ID NO: 9 (designed binder)
chain: MRGSHHHHHHGSDLGKKLLQAARAGQLDEVRELLKAGADVNAKDEQGRTPLHIAAASGHLEIVEVLLKAGADVNAKDWFGITPLHIAAWWGHLEIVEVLLKAGADVNAKDQEGRTPLHIAAAIGHLEIVEVLLKAGADVNAQDKSGKTPADLAARAGHQDIAEVLQKAAGSPTPTPTTPTPTPTTPTPTPTGSDLGIKLLFAAAKGQDDEVRELLKAGADVNAKDFQGVTPLHIAAQSGHLEIVEVLLKAGADVNAKDVTGDTPLHLAAQHGHLEIVEVLLKAGADVNAQDERGWTPADLAADWGHEDIAEVLQKAA
notes: Bispecific DARPin; also called Construct 6
- EC50 (pM), ADCC reporter assay (luminescence), SKOV3 target cells, E:T 5:1, 5 h [2]: 3.5 pM
- binding result [4]: no binding (tested: 1000 nM)

B8: Construct No. 8 (SEQ ID NO: 12), 2D (CD16a × HER2), DARPin #2 with C-terminal HER2 binder of SEQ ID NO: 8 (designed binder)
chain: MRGSHHHHHHGSDLGQKLLRAAKKGQDDEVRELLKAGADVNAKDEQGWTPLHIAAWKGHLEIVEVLLKAGADVNAKDVFDWTPLHVAAHFGHLEIVEVLLKAGADVNAQDRAGETPADLAAQAGHEDIAEVLQKAAGSPTPTPTTPTPTPTTPTPTPTGSDLGKKLLEAARAGQDDEVRELLKAGADVNAKDEYGLTPLYLATAHGHLEIVEVLLKAGADVNAVDAIGFTPLHLAAFIGHLEIAEVLLKAGADVNAQDKFGKTPADIAAGAGNEDIAEVLQKAA
notes: Bispecific DARPin; also called Construct 8
- EC50 (pM), ADCC reporter assay (luminescence), SKOV3 target cells, E:T 5:1, 5 h [2]: 0.24 pM
- binding result [3]: no binding (tested: 400 nM)

B9: Construct No. 9 (SEQ ID NO: 14), 2D (HER2 × CD16a), DARPin #3 with N-terminal HER2 binder of SEQ ID NO: 8 (designed binder)
chain: MRGSHHHHHHGSDLGKKLLEAARAGQDDEVRELLKAGADVNAKDEYGLTPLYLATAHGHLEIVEVLLKAGADVNAVDAIGFTPLHLAAFIGHLEIAEVLLKAGADVNAQDKFGKTPADIAAGAGNEDIAEVLQKAAGSPTPTPTTPTPTPTTPTPTPTGSDLGKKLLQAARAGQLDEVRELLKAGADVNAKDEQGRTPLHIAAASGHLEIVEVLLKAGADVNAKDWFGITPLHIAAWWGHLEIVEVLLKAGADVNAKDQEGRTPLHIAAAIGHLEIVEVLLKAGADVNAQDKSGKTPADLAARAGHQDIAEVLQKAA
- EC50 (pM), ADCC reporter assay (luminescence), SKOV3 target cells, E:T 5:1, 5 h [2]: 1.6 pM

B10: Construct No. 10 (SEQ ID NO: 16), 2D (CD16a × HER2), DARPin #3 with C-terminal HER2 binder of SEQ ID NO: 8 (designed binder)
chain: MRGSHHHHHHGSDLGKKLLQAARAGQLDEVRELLKAGADVNAKDEQGRTPLHIAAASGHLEIVEVLLKAGADVNAKDWFGITPLHIAAWWGHLEIVEVLLKAGADVNAKDQEGRTPLHIAAAIGHLEIVEVLLKAGADVNAQDKSGKTPADLAARAGHQDIAEVLQKAAGSPTPTPTTPTPTPTTPTPTPTGSDLGKKLLEAARAGQDDEVRELLKAGADVNAKDEYGLTPLYLATAHGHLEIVEVLLKAGADVNAVDAIGFTPLHLAAFIGHLEIAEVLLKAGADVNAQDKFGKTPADIAAGAGNEDIAEVLQKAA
- EC50 (pM), ADCC reporter assay (luminescence), SKOV3 target cells, E:T 5:1, 5 h [2]: 24 pM

B11: Construct No. 11 (SEQ ID NO: 18), 2D (CD16a × HER2), DARPin #1 with C-terminal HER2 binder of SEQ ID NO: 9 (designed binder)
chain: MRGSHHHHHHGSDLGKKLLQAARAGQLDEVRELLKAGADVNAKDWSGFTPLHIAAVQGHLEIVEVLLKAGADVNAKDHSGWTPLHVAAFSGHLEIVEVLLKAGADVNAKDATGQTPLHLAARTGHLEIVEVLLKAGADVNAQDKSGKTPADLAARAGHQDIAEVLQKAAGSPTPTPTTPTPTPTTPTPTPTGSDLGIKLLFAAAKGQDDEVRELLKAGADVNAKDFQGVTPLHIAAQSGHLEIVEVLLKAGADVNAKDVTGDTPLHLAAQHGHLEIVEVLLKAGADVNAQDERGWTPADLAADWGHEDIAEVLQKAA
- EC50 (pM), ADCC reporter assay (luminescence), SKOV3 target cells, E:T 5:1, 5 h [2]: 4.1 pM
